Substitutions are numbered along the chain they refer to. Ends that are not written are not given here.
Experiments:
human OPN protein [1] = target: T1, human OPN protein (human, UniProt P10451 17-314, limits assumed); assay: western blot
T1 construct: also called hOPN; human osteopontin

KLH-5F12 = target: T2, KLH-5F12 (also: coupled to KLH (site and chemistry not given here)); assay: dot blot, 10 ng dots of KLH peptide
T2 construct: Synthetic 5F12 peptide as a KLH conjugate, spotted in the dot blot; also called short peptide 5F12 coupled to KLH
T2 peptide: DVYWLMPDPPTS
Method: Dot-blot assay was as follows: three dots of 3×10 ng KLH-4B5 (irrelevant control) and KLH-5F12 respectively, were pointed. Each short peptide obtained in experiment V-4 was used to hybrid with three different antibodies. After being blocked and washed, the membrane was reacted with primary antibody at room temperature for 1 hour. Then, the membrane was washed again, and reacted with HRP-labeled anti-mouse secondary antibody at room temperature for 1 hour. After being washed, the membrane was pressed and exposed.

phage clone 5F12 = target: T3, phage clone 5F12; assay: phage clone panned on an antibody-coated plate, eluted titer
T3 construct: not shown: phage coat protein carrying the 12-mer (NEB Ph.D.-12 library)
T3 peptide: DVYWLMPDPPTS

phage clone 5D2 = target: T4, phage clone 5D2; assay: as above
T4 construct: The sentence also calls it a 'synthetic short peptide'; not shown: phage coat protein carrying the 12-mer (NEB Ph.D.-12 library)
T4 peptide: GTSTEVWLAPDP

human OPN protein [2] = target: T1, human OPN protein; assay: western blot, 5 ug hOPN per lane
Method: SDS-PAGE (10%) electrophoresis was carried out (5 ug hOPN/lane). hOPN was transferred to nitrocellulose membrane by 360 mA constant current for 1 hour.

T1 sequence (P10451 17-314 limits assumed): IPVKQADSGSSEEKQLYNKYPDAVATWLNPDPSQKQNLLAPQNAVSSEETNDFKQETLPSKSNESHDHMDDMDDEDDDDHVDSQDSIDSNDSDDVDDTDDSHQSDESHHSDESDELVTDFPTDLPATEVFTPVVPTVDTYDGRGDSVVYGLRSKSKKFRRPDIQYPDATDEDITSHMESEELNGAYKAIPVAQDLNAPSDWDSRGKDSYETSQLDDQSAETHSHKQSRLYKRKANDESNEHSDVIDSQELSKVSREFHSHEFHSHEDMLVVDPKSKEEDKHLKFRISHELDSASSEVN

B1: mouse anti-human OPN monoclonal antibody 23C3 (antibody, V domains shown)
VH: EVQLVESGGGLVQPKGSLKISCAASGFTFNIYAMNWVRQAPGKGLEWVARIRSQSNNYTTYYADSVKDRFTISRDDSQSMLYLQMNNLKTEDTAMYYCVRQMGDYWGQGTTLTVSS
VL: YIQMTQSPASLSVSVGETVTITCRASENIYSFLAWYQQKQGKSPQLLVYAATNLADGVPSRFSGSGSGTQFSLKINSLQSEDFGTYYCQHFWGTPFTFGSGTKLEIKR
notes: also called 23C3 mAb; 23C3 monoclonal antibody
**Q.** Does B1 bind (human OPN protein [1])?
**A.** binds

**Q.** Does B1 bind (KLH-5F12)?
**A.** binds

**Q.** Does B1 bind (phage clone 5F12)?
**A.** binds

**Q.** Does B1 bind (phage clone 5D2)?
**A.** binds

B2: anti-OPN chimeric antibody c23C3 (antibody, human IgG1, kappa, V domains shown)
VH: B1 VH
VL: B1 VL
notes: 23C3 VH and VL joined by overlap PCR to the cloned human CH (pGEM-T/CH) and CL (pGEM-T/CL); also called C23C3 chimeric antibody; chimeric monoclonal antibody c23C3
**Q.** Does B2 bind (human OPN protein [2])?
**A.** binds

B3: anti-OPN humanized antibody h23C3 (h23C3Hb/h23C3Lb) (antibody, human IgG1, kappa, V domains shown)
VH: B1 VH with K15G, K19R, I20L, Q78K, S79N, M80S, N87S, M95V, T111L, L112V
VL: YIQMTQSPSSLSASVGDRVTITCRASENIYSFLAWYQQKPGKAPQLLVYAATNLADGVPSRFSGSGSGTQFTLTISSLQPEDFATYYCQHFWGTPFTFGQGTKLEIKR
notes: Humanized variable regions that retain seven murine framework residues, joined to the human CH and CL by the same method as for h23C3Ha/h23C3La; The signal peptide is left out; also called h23C3VHb/h23C3VLb
**Q.** Does B3 bind (human OPN protein [2])?
**A.** binds

From US20100239588A1 (SHANGHAI NATIONAL ENGINEERING RESEARCH CENTER OF ANTIBODY …, published 2010)
